Reference: patent US10428140B2, “Anti-EphA4 antibody” (EISAI R&D MANAGEMENT CO., LTD., priority 2015, dated 2019)
Substitutions are numbered along the chain they refer to.

T1: human EphA6 (Homo sapiens, UniProt Q9UF33)
T1 construct: a protein of the extracellular region of each human Eph receptor fused with the SEAP protein and the His tag; made in house; host or cells: Expi293F cells (culture supernatant)
T1 sequence (Q9UF33 23-550 limits assumed): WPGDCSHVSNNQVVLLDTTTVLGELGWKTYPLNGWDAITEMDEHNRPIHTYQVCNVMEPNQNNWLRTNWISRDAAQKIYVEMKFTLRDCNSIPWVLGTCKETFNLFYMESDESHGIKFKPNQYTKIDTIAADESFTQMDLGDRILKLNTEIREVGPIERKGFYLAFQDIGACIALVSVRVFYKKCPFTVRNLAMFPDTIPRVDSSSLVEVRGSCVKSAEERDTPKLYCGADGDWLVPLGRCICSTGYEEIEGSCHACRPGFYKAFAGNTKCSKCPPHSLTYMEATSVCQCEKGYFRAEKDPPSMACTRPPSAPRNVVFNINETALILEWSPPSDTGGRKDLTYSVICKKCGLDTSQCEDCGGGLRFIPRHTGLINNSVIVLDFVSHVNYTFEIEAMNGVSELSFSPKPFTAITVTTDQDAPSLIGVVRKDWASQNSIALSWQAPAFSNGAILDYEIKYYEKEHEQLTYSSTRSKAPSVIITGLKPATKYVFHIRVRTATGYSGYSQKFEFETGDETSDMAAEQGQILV

T2: human EphB1 (Homo sapiens, UniProt P54762)
T2 construct: a protein of the extracellular region of each human Eph receptor fused with the SEAP protein and the His tag; made in house; host or cells: Expi293F cells (culture supernatant)
T2 sequence (P54762 18-540 limits assumed): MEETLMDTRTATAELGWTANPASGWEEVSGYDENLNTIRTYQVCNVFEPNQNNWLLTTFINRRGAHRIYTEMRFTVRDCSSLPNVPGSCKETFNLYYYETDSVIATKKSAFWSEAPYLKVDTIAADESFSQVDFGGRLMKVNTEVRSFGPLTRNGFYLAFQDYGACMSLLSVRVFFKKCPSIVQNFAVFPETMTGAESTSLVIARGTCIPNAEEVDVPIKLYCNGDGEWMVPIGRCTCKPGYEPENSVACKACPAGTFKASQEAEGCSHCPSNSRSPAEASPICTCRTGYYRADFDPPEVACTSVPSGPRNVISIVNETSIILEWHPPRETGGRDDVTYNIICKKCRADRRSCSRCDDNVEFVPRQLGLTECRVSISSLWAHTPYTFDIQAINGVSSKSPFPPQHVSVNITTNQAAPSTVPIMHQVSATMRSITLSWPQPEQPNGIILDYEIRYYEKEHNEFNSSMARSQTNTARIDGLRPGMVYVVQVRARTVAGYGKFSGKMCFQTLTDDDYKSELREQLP

B1: 135 (antibody, V domains shown)
VH: QVQLVQSGSELKKPGASVKVSCKASGYTFTDYSMHWVRQAPGQGLEWMGWINTETGEPTYADDFKGRFVFSLDTSVSTAYLQISSLKAEDTAVYYCARIPLYYYGSRYWYFDVWGQGTTVTVSS
VL: EIVMTQSPATLSVSPGERATLSCRASENIYRNLAWYQQKPGQSPRLLIYAATNLADGIPARFSGSGSGTEYTLTISSLQSEDFAVYYCQHFWGTPWTFGQGTKVEIK
modifications: synthetic humanized antibody heavy chain variable region sequence; synthetic humanized antibody light chain variable region sequence
B2: 75 (antibody)
VH: B1 VH with D62Q, D63G, K65T
VL: DIQMTQSPSSLSASVGDRVTITCRASENIYRNLAWYQQKPGKAPKLLVYAATNLADGVPSRFSGSGSGTDYTLTISSLQPEDFATYYCQHFWGTPWTFGQGTKVEIK
chain: ASTKGPSVFPLAPSSKSTSGGTAALGCLVKDYFPEPVTVSWNSGALTSGVHTFPAVLQSSGLYSLSSVVTVPSSSLGTQTYICNVNHKPSNTKVDKRVEPKSCDKTHTCPPCPAPPAAAPSVFLFPPKPKDTLMISRTPEVTCVVVDVSHEDPEVQFNWYVDGVEVHNAKTKPREEQFNSTFRVVSVLTVVHQDWLNGKEYKCKVSNKGLPAPIEKTISKTKGQPREPQVYTLPPSREEMTKNQVSLTCLVKGFYPSDIAVEWESNGQPENNYKTTPPMLDSDGSFFLYSKLTVDKSRWQQGNVFSCSVMHEALHNHYTQKSLSLSPG
modifications: synthetic humanized antibody heavy chain variable region sequence; synthetic humanized antibody light chain variable region sequence; synthetic antibody constant region sequence
B3: 77 (antibody, V domains shown)
VH: B1 VH
VL: B2 VL
modifications: synthetic humanized antibody heavy chain variable region sequence; synthetic humanized antibody light chain variable region sequence
B4: 136 (antibody, V domains shown)
VH: B1 VH with E46K
VL: B1 VL
modifications: synthetic humanized antibody heavy chain variable region sequence; synthetic humanized antibody light chain variable region sequence
B5: 156 (antibody, V domains shown)
VH: B1 VH with V2I, E46K, D62Q, D63G, K65T
VL: B2 VL with K45Q, V48L
modifications: synthetic humanized antibody heavy chain variable region sequence; synthetic humanized antibody light chain variable region sequence
B6: 78 (antibody, V domains shown)
VH: B1 VH with E46K
VL: B2 VL
modifications: synthetic humanized antibody heavy chain variable region sequence; synthetic humanized antibody light chain variable region sequence
B7: 67 (antibody, V domains shown)
VH: B1 VH with V2I, E46K, D62Q, D63G, K65T
VL: B2 VL
modifications: synthetic humanized antibody heavy chain variable region sequence; synthetic humanized antibody light chain variable region sequence
B8: 76 (antibody, V domains shown)
VH: B1 VH with E46K, D62Q, D63G, K65T
VL: B2 VL
modifications: synthetic humanized antibody heavy chain variable region sequence; synthetic humanized antibody light chain variable region sequence

These molecules were tested against T1, human EphA6 (assay: Selectivity ELISA of humanized antibodies for human Eph receptor). Conditions: coated protein 1 nM.
Assay type: binding
Method in brief: (§1)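 Capture ELISA: anti-6-His coat, 1% BlockAce block, Eph ECD-SEAP-His (1 nM final, Expi293F supernatant) 1 h RT, humanized Ab 1 h RT, HRP anti-IgG 1 h RT, TMB, H2SO4 stop, A450.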
B1 was tested, and the “hEphA6-SEAP-: absorbance at 450 nm, percentage with respect to hEphA4-SEAP-His as 100%” value was 7.0%. B2 was tested, and the “hEphA6-SEAP-: absorbance at 450 nm, percentage with respect to hEphA4-SEAP-His as 100%” value was 8.3%. In the case of B3, the “hEphA6-SEAP-: absorbance at 450 nm, percentage with respect to hEphA4-SEAP-His as 100%” value is reported as 6.0%. B4 was tested, and the “hEphA6-SEAP-: absorbance at 450 nm, percentage with respect to hEphA4-SEAP-His as 100%” value was 7.2%. In the case of B5, the “hEphA6-SEAP-: absorbance at 450 nm, percentage with respect to hEphA4-SEAP-His as 100%” value is reported as 8.9%. In the case of B6, the “hEphA6-SEAP-: absorbance at 450 nm, percentage with respect to hEphA4-SEAP-His as 100%” value is reported as 10.0%. With B7 the “hEphA6-SEAP-: absorbance at 450 nm, percentage with respect to hEphA4-SEAP-His as 100%” value was 7.3%. With B8 the “hEphA6-SEAP-: absorbance at 450 nm, percentage with respect to hEphA4-SEAP-His as 100%” value was 7.9%.

These molecules were tested against T2, human EphB1 in the same assay as above. Conditions: coated protein 1 nM.
Assay type: binding
Method in brief: as §1
In the case of B1, the “hEphB1-SEAP-: absorbance at 450 nm, percentage with respect to hEphA4-SEAP-His as 100%” value is reported as 5.1%. In the case of B2, the “hEphB1-SEAP-: absorbance at 450 nm, percentage with respect to hEphA4-SEAP-His as 100%” value is reported as 4.4%. B3 was tested, and the “hEphB1-SEAP-: absorbance at 450 nm, percentage with respect to hEphA4-SEAP-His as 100%” value was 4.6%. B4 was tested, and the “hEphB1-SEAP-: absorbance at 450 nm, percentage with respect to hEphA4-SEAP-His as 100%” value was 5.2%. With B5 the “hEphB1-SEAP-: absorbance at 450 nm, percentage with respect to hEphA4-SEAP-His as 100%” value was 5.4%. In the case of B6, the “hEphB1-SEAP-: absorbance at 450 nm, percentage with respect to hEphA4-SEAP-His as 100%” value is reported as 5.0%. For B7, the “hEphB1-SEAP-: absorbance at 450 nm, percentage with respect to hEphA4-SEAP-His as 100%” value was 4.6%. For B8, the “hEphB1-SEAP-: absorbance at 450 nm, percentage with respect to hEphA4-SEAP-His as 100%” value was 4.9%.

What follows are molecules tested against T3, human EphA4 (binding to human Ephrin A5) (Homo sapiens, UniProt P54764) (assay: Human EphA4-human ligand binding inhibition ELISA of humanized antibodies (biotinylated Ephrin A5-Fc)). Conditions: biotinylated human Ephrin A5-Fc 0.7 nM.
T3 construct: made in house; not restated for the human SEAP-His protein
T3 sequence (P54764 20-547): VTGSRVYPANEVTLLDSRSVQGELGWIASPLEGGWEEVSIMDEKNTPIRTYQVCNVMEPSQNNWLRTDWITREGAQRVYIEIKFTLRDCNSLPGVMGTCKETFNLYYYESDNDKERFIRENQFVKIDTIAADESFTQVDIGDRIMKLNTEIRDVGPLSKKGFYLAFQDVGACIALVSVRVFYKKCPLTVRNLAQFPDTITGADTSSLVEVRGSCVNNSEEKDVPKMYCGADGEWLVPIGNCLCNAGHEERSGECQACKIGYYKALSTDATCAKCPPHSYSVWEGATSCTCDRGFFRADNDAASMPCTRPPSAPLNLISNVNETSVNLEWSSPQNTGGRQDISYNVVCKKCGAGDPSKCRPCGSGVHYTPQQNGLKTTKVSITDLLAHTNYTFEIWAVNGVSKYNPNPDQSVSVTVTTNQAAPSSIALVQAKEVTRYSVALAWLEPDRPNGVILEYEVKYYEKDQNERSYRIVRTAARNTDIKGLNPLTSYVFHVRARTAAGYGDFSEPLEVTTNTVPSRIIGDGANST
Method in brief: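 Wells coated with anti-alkaline phosphatase antibody captured human EphA4 extracellular region-SEAP-His at 10 nM. Biotinylated human Ephrin A5-Fc (0.7 nM) and serially diluted humanized antibody (0-3000 nM) were added together for 1 h at room temperature. Bound ligand was detected with HRP-streptavidin and TMBZ at A450.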
B1 showed an IC50 of 2.5 nM. Work on B2 yielded an IC50 of 2.9 nM. In the case of B3, the IC50 is reported as 3.5 nM. Work on B4 yielded an IC50 of 2.5 nM. Work on B5 yielded an IC50 of 2.5 nM. B6 showed an IC50 of 2.8 nM. B7 gave an IC50 of 4.4 nM. B8 showed an IC50 of 2.9 nM.
